Test results: the RNAGym collection of RNA variant scans (doi:10.1073/pnas.2313332121)

B1: TPR t1 (parent)
chain: GACCAAUCUGCCCUCAGAGCUCGAGAACAUCUUCGGAUGCAGAGGAGGCAGGCUUCGGUGGCGCGAUAGCGCCAACGUCCUCAACCUCCAAUGCAUCCCACCACAUGAUGAUGCCUGAAGAGCCUUGGUUUUUUG

Variants of: B1
Assay: polymerase ribozyme fitness, log enrichment relative to wild type (log ratio); higher = more active; in vitro selection for triplet polymerase activity
Procedure, shortened: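 Each subunit of a heterodimeric triplet polymerase ribozyme was represented by a PCR-built, transcribed mutant library that underwent triplicate single-round in vitro selection with frozen incubation at −7 °C. Extended constructs were recovered by gel excision, streptavidin-bead capture and RT-PCR, and Illumina sequencing of input and output libraries kept genotypes with ≥10 input reads and ≥1 read per output. Fitness is the logarithm of genotype enrichment relative to wild-type enrichment, from inverse-variance-weighted replicate averages, with a logarithm base of 2.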

Variant | polymerase ribozyme fitness (log ratio)
GACCAAUCUGCCCUCAGUGCUCGAGAACAUCUUCGGAUGCAGAGGAGGCAGGCUUCGGUGGCGCGAUAGCGCCAACGUCCUCAACCUCCAAUGCAUCCCACCACAUGAUGAUGCCUGAAGAGCCUUGGAUUUUUG | -4.3
GACCAAUCUGCCCUCAGUGCUCGAGAACAUCUUCGGAUGCAGAGGAGGCAGGCUUCGGUGGCGCGAUAGCGCCAACGUCCUCAACCUCCAAUGCAUCCCACCACAUGAUGAUGCCUGAAGAGCCUUGGGUUUUUG | -3.92
GACCAAUCUGCCCUCAGAACUCGAGAACAUCUUCGGAUGCAGAGGCGGCAGGCUUCGGUGGCGCGAUAGCGCCAACGUCCUCAACCUCCAAUGCAUCCCACCACAUGAUGAUGCCUGAAGAGCCAUGGUUUUUUG | -3.96
GACCAAUCUGCCCUCAGAACUCGAGGACAUCUUCGGAUGCAGAGGAGGCAGGCUUCGGUGGCGCGAUAGCGCCAACGUCCUCAACCUCCAAUGCAUCCCACCACAUGAUGACGCCUGUAGAGCCUUGGUUUUUUG | -3.63
GACCAAUCUGCCCUCAGUGCUCGAGAACAUCUUCGGAUGCAGAGGAGGCAGGCUUCGGUGGCGCGAUAGCGCCAACGUCCUCAACCUCCAAUGCAUCCCACCACAUGAUGAGGCCUGAAGAGCCUUGGUUUUUUG | -2.46
GACCAAUCUGCCCUCAGUGCUCGAGAACAUCUUCGGAUGCAGAGGAGGCAGGCUUCGGUGGCGCGAUAGCGCCAACGUCCUCAACCUCCAAUGCAUCCCACCACAUGAUGAAGCCUGAAGAGCCUUGGUUUUUUG | -1.42
GACCAAUCUGCCCUCAGUGCUCGAGAACAUCUUCGGAUGCAGAGGAGGCAGGCUUCGGUGGCGCGAGAGCGCCAACGUCCUCAACCUCCAAUGCAUCCCAGCACAUGAUGAUGCCCGAAGAGCCUUGGUUUUUUG | -5.12
GACCAAUCUGCCCUCAGUGCUCGAGAACAUCUUCGGAUGCAGAGGAGGCAGGCUUCGGUGGCGCGAUAGCGCCAACGUCCUCAACCUCCAAAGCAUCCCACCACAUGAUGAUGCCUGAAGAGCCUUGGUUUUUUG | -4.67
GACCAAUCUGCCCUCAGAACUCGAGAACAUCUUCGGAUGCUGAGGAGGCAGGAUUCGGUCGCGCGAUAGCGCCAACGUCCUCAACCUCCAAUGCAUCCCACCACAUGAUGAUGCCUGAAGUGCCUUGGUUUUUUG | -5.24
GACCAAUCUGCCCUCAGUGCUCGAGAACAUCUUCGGAUGCAGAGGAGGCAGGCUUCGGUGGCGCGAUAGCGCCAACGUCCUCAACCUCCAAUGCAACCCACCACAUGAUGAUGCCUGAAGAGCCUUGGUUUUUUG | -3.21
GACCAAUCUGCCCUCAGAACUCGAGAACAUCUUCGGAUGCUGAGGAGGCAGGCUUCGGUGGCGCGAUAGCGCCAACGCCCUCAACCUCCAAUGCAUCCCACCACAUGAUGAUGCCUGAAGAGCCUUGGUUUCUUG | -4.37
GACCAAUCUGCCCUCAGUGCUCGAGAACAUCUUCGGAGGCAGAGGAGGCAGGCUUCGGUGGCGCGAUAGCGCCAACGUCCUCAACCUCCAAUGCAUCCCACCACAUGAUGAUGCCUGAAGAGACUUGGUUUUUUG | -4.13
GACCAAUCUGCCCUCAGUGCUCGAGAACAUCUUCGGAUGCAGAGGAGGCAGGCUUCGGUGGCGCGAUAGCGCCAACGUCCUCAACCUCCAAUGCAUCCCACCACAUGAUGACGCCUGAAGAGCCUUGAUUUUUUG | -2.38
GACCAAUCUGCCCUCAGAACUCGAGAACAUCUUCGGAUGCAGUGGAGGCAGGUUUAGGUGGCGCGAUAGCCCCAACGUCCUCAACCUCCAAUGCAUCCCACCACAUGAUGAUGCCUGAAGAGCCUUGGUUUUUUG | -5.18
GACCAAUCUGCCCUCAGUGCUCGAGAACAUCUUCGGAUGCAGAGGAGGCAGGCUUCGGUGGCGCGAUAGCGCCAACGUCCUCAACCUCCAAUGCAUCCCACCACAUGAUGAUGCCUGAAGAGCCGUGGUUUUUUG | -3.41
GACCAAUCUGCCCUCAGAACUCGAGAACAUCUUCGGAUGCUGAGGAGGCAGGCUUGGGAGGCGCGAUAGCGCCAACGUCCUCAACCUCCAAUGCAUCCCACCACAUGAUGAUGCCUGAAGAGCCUUGGUUUUUUG | -5.05
GACCAAUCUGCCCUCAGUGCUCGAGAACAUCUUCGGAUGCAGAGGAGGCAGGCUUCGGUGGCGCGAUAGCGCCAACGCCCUCAACCUUCAAUGCAUCCCACCACAUGAUGAGGCCUGAAGAGCCUUGGUUUUUUG | -2.16
GACCAAUCUGCCCUCAGAACUCGAGAACAUCUUCGGAUGCUGAGGAGGCAGGCUUCGGUGGCGCGAUAGCGCCAACGUCCAAAACCUCCAAUGCAUCCCACCACAUGAUGAAGCCUGAAGAGCCUUGGUUUUUUG | -0.674
GACCAAUCUGCCCUCAGUGCUCGAGAACAUCUUCGGAUGCAGAGGAGGCAGGCUUCGGUGGCGCGAUAGCGCCAACGACCUCAACCUCCAAUGCUUCCCACCAUAUGAUGAUGCCUGAAGAGCCUUGGUUUUUUG | -4.27
GACCAAUCUGCCCUCAGUGCUCGAGAACAUCUUCGGAUGCAGAGGAGGCAGGCAUCGGUGGCGCGAUAGCGGCAACGUCCUCAACCUCCAAUGCAUCCCACCACAUGAUGAUGCCUGAAGAGCCUUGGUUUUUUG | -2.46
GACCAAUCUGCCCUCAGAACUCGAGAACAUCUUCGGCUGCAGAGGAGGCAGGCUUCGGUGUCGCGAUAGCGCCAACGUCCUCAACCUCCAAUGCAUCCCACCACAUGAUGAUGCCUGAACAGCCUUGGUUUUUUG | -2.13
